Like-named read-outs stand apart in the source and are kept apart here.
Experiments:
[1] = molecular target: T1, Human PD-1 expressed on CHO-K1 cells (CHO-K1/hPD-1) (human, UniProt Q15116 25-288); assay: FACS, CHO-K1/hPD-1 cells
T1 construct: whole, on cells; also called CHO-K1 cells overexpressing human PD-1
Experimental: In order to investigate the in vitro binding activity of the PD-1 antigen-binding proteins to human/cynomolgus monkey PD-1, the binding assay at the cellular level was performed using a CHO-K1 cell strain overexpressing human or cynomolgus monkey PD-1 (CHO-K1/hPD-1 or CHO-K1/cyno PD-1, from GenScript). Briefly, the CHO-K1-hPD-1 cells were digested and resuspended in an F-12K complete medium, and the cell density was adjusted to 1×10⁶ cells/mL. The cells were seeded in a 96-well V-bottom plate (Corning, Cat#3894) at 100 μL/well, followed by the addition of the test antigen-binding proteins with concentrations 2-fold of final concentrations obtained by 5-fold gradient dilution were each added at 100 μL/well. The mixtures were well mixed. The maximum final concentration of the antigen-binding proteins was 100 nM or 300 nM. A total of 8-11 concentrations were set. hIgG was used as a control. The cells were incubated at 4° C. for 1 h away from light. Thereafter, the cells in each well were rinsed twice with 100 μL of pre-cooled PBS, and centrifuged at 500 g at 4° C. for 5 min, and then the supernatant was discarded. Then 100 μL of a fluorescent secondary antibody (goat anti-human IgG (H+L) secondary antibody, Alexa Fluor® 488 conjugate, Invitrogen, Cat #A11013, 1:1000) was added to each well. The plate was incubated away from light at 4° C. for 30 min. The cells in each well were rinsed twice with 200 μL of pre-cooled PBS, and centrifuged at 500 g at 4° C. for 5 min, and then the supernatant was discarded. Finally, the cells in each well were resuspended in 200 μL of pre-cooled PBS, and the fluorescence signal values were read using a BD FACS CANTOII.

[2] = molecular target: T2, Human PD-1 protein with histidine and avi tags (ACRO Biosystems, PD1-H82E4) (human, UniProt Q15116 25-167); assay: BLI (Octet Red96e), PD-1 captured on SA sensor, 1:1 local fit
T2 construct: Captured on streptavidin (SA) sensors in the BLI assay; not shown: histidine and avi tags
Experimental: (§1) Human PD-1 proteins with histidine and avi tags were purchased from the manufacturer ACRO Biosystems (Cat#: PD1-H82E4), and the assay buffer was 1× kinetics buffer (diluted from 10× kinetics buffer (ForteBio, Cat#: 18-1105)) for kinetic assay and dilution of antigens and antibodies. The binding kinetics between the antigen and the antibody was analyzed by the biolayer interferometry (BLI) technique using an Octet molecular interaction analyzer (ForteBio, model: Octet Red96e).
(§2) When the binding kinetics between the antigen and the antibody was determined, the rotation speed of the sensor was set at 1000 rpm/min. The eight SA sensors placed in a column were first equilibrated in an assay buffer for 10 min and then used to capture PD-1 at a capture height of 0.5 nm. Thereafter, the SA sensors were equilibrated in the assay buffer for 100 s, and then were associated with each antibody diluted to a single concentration and with a row of blank buffer wells for 180 s, followed by dissociation for 600 s. A new column of SA sensors were used in each cycle.
(§3) When data analysis was performed using Octet Data Analysis software (Fortebio, version 11.0), the reference signals were subtracted by a single reference mode (reference well), the data were fitted by a “1:1 Local fitting” method, and the kinetic parameters of the binding of the antigen to the antibody were calculated to obtain kon (1/Ms) values, kdis (1/s) values and KD (M) values.

[3] = molecular target: T2, Human PD-1 protein with histidine and …; assay: BLI; ratio of kdis, apparently PR005090 over the variant
Experimental: as §1, §2, §3

[4] = molecular target: T1, Human PD-1 expressed on CHO-K1 cells …; assay: FACS, CHO-K1/hPD-1 cells; remark: listed apart in the source
[5] = molecular target: T1, Human PD-1 expressed on CHO-K1 cells …; assay: FACS, CHO-K1/hPD-1 cells; remark: listed apart in the source

T1 sequence (Q15116 25-288): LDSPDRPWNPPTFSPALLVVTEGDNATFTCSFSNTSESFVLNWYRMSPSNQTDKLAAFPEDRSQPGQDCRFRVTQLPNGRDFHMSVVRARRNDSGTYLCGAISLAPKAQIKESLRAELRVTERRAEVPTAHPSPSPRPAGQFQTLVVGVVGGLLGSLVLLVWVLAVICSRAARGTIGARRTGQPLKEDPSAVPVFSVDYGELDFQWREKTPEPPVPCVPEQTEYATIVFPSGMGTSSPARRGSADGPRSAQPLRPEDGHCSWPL
T2 sequence (Q15116 25-167 limits assumed): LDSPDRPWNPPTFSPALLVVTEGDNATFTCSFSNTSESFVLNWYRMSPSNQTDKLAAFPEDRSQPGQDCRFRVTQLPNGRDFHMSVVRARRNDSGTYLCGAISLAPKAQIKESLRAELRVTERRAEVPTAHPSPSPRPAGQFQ

B1: PR005098 (VHH)
VHH: EVQLVETGGGLIQPGGSLRLSCAASGFNVSSHYMSWVRQAPGKGREWVSIIDGGGSTYYADSVKGRFTISRDNSKNRLYLQMNSLRAEDTAMYYCARATQVREKGGYNYPFNYWGQGTLVTVSS
notes: Monovalent single-domain (VH) variant of PR002481 with Flag-6His tag
- EC50 [1]: 18.4 nM
- MFI Maximum [1]: 5720
- Kd [2]: 5.88 nM
- koff [2]: 0.000394 s⁻¹
- kon [2]: 67100 M⁻¹ s⁻¹
- kdis ratio [3]: 2.9

B2: PR005570 (antibody, human IgG1, V domains shown)
VH: EVQLVETGGGLIQPGGSLRLSCAASGFNVSFYYMSWVRQAPGKGREWVSIIDKGGSTYYGDSVKGRFTISRDNSKNRLYLQMNSLRAEDTAMYYCARATEVREKNGYNYPFNYWGQGTLVTVSS
notes: no light chain; also called anti-PD1 PR002481R2M1_H3 HCAb hIgG1
- EC50 [4]: 6.54 nM
- Maximum (MFI) [4]: 3.18e+06

B3: PR005102 (VHH)
VHH: EVQLVETGGGLIQPGGSLRLSCAASGFNVSSHYMSWVRQAPGKGREWVSIIDRGGSTYYADSVKGRFTISRDNSKNRLYLQMNSLRAEDTAMYYCARATAVAEKNGYNYPFNYWGQGTLVTVSS
notes: as for B1
- EC50 [1]: 12.2 nM
- MFI Maximum [1]: 6560
- Kd [2]: 5.99 nM
- koff [2]: 0.000268 s⁻¹
- kon [2]: 44800 M⁻¹ s⁻¹
- kdis ratio [3]: 4.25

B4: PR005104 (VHH)
VHH: EVQLVETGGGLIQPGGSLRLSCAASGFNVSSHYMSWVRQAPGKGREWVSIIDISGSTYYADSVKGRFTISRDNSKNRLYLQMNSLRAEDTAMYYCARATAVAEKNGYNYPFNYWGQGTLVTVSS
notes: as for B1
- EC50 [1]: 11.8 nM
- MFI Maximum [1]: 7300
- Kd [2]: 3.08 nM
- koff [2]: 0.000243 s⁻¹
- kon [2]: 79000 M⁻¹ s⁻¹
- kdis ratio [3]: 4.7

B5: PR005577 (antibody, human IgG1, V domains shown)
VH: EVQLVETGGGLIQPGGSLRLSCAASGFNVASYYMSWVRQAPGKGREWVSIIDKAGSGYYADSVKGRFTISRDNSKNRLYLQMNSLRAEDTAMYYCARATEVREKQGYNYPFNYWGQGTLVTVSS
notes: no light chain; also called anti-PD1 PR002481Com_26 HCAb hIgG1
- EC50 [5]: 6.5 nM
- Maximum (MFI) [5]: 2.49e+06

B6: PR005578 (antibody, human IgG1, V domains shown)
VH: EVQLVETGGGLIQPGGSLRLSCAASGFNVASYYMSWVRQAPGKGREWVSIIDKAGSGYYADSVKGRFTISRDNSKNRLYLQMNSLRAEDTAMYYCARATAVREKQGYNYPFNYWGQGTLVTVSS
notes: no light chain; also called anti-PD1 PR002481Com_27 HCAb hIgG1
- EC50 [5]: 4.28 nM
- Maximum (MFI) [5]: 2.71e+06

B7: PR005575 (antibody, human IgG1, V domains shown)
VH: EVQLVETGGGLIQPGGSLRLSCAASGFNVASHYMSWVRQAPGKGREWVSIIDKAGSGYYADSVKGRFTISRDNSKNRLYLQMNSLRAEDTAMYYCARATEVREKQGYNYPFNYWGQGTLVTVSS
notes: no light chain; also called anti-PD1 PR002481Com_24 HCAb hIgG1
- EC50 [5]: 3.93 nM
- Maximum (MFI) [5]: 2.58e+06
- Kd [2]: 6.46 nM
- koff [2]: 4.28e-05 s⁻¹
- kon [2]: 12900 M⁻¹ s⁻¹

B8: PR005583 (antibody, human IgG1, V domains shown)
VH: EVQLVETGGGLIQPGGSLRLSCAASGFNVASFYMSWVRQAPGKGREWVSIIDKAGSTYYADSVKGRFTISRDNSKNRLYLQMNSLRAEDTAMYYCARATEVREKQGYNYPFNYWGQGTLVTVSS
notes: no light chain; also called anti-PD1 PR002481Com_29 HCAb hIgG1
- EC50 [5]: 4.79 nM
- Maximum (MFI) [5]: 2.76e+06
- Kd [2]: 1.69 nM
- koff [2]: 1.65e-05 s⁻¹
- kon [2]: 8280 M⁻¹ s⁻¹

B9: PR005101 (VHH)
VHH: EVQLVETGGGLIQPGGSLRLSCAASGFNVSSHYMSWVRQAPGKGREWVSIIDKGGGTYYADSVKGRFTISRDNSKNRLYLQMNSLRAEDTAMYYCARATAVAEKNGYNYPFNYWGQGTLVTVSS
notes: as for B1
- EC50 [1]: 22.1 nM
- MFI Maximum [1]: 6900
- Kd [2]: 58.8 nM
- koff [2]: 0.000173 s⁻¹
- kon [2]: 2940 M⁻¹ s⁻¹
- kdis ratio [3]: 6.61

B10: PR005103 (VHH)
VHH: EVQLVETGGGLIQPGGSLRLSCAASGFNVSSHYMSWVRQAPGKGREWVSIIDRGGGTYYADSVKGRFTISRDNSKNRLYLQMNSLRAEDTAMYYCARATAVAEKNGYNYPFNYWGQGTLVTVSS
notes: as for B1
- EC50 [1]: 14.5 nM
- MFI Maximum [1]: 6890
- Kd [2]: 79.6 nM
- koff [2]: 0.000252 s⁻¹
- kon [2]: 3160 M⁻¹ s⁻¹
- kdis ratio [3]: 4.54

B11: PR005571 (antibody, human IgG1, V domains shown)
VH: EVQLVETGGGLIQPGGSLRLSCAASGFNVSFYYMSWVRQAPGKGREWVSIIDKGGSTYYADSVKGRFTISRDNSKNRLYLQMNSLRAEDTAMYYCARATEVREKQGYNYPFNYWGQGTLVTVSS
notes: no light chain; also called anti-PD1 PR002481Com_31 HCAb hIgG1
- EC50 [4]: 6.55 nM
- Maximum (MFI) [4]: 2.95e+06

B12: PR005099 (VHH)
VHH: EVQLVETGGGLIQPGGSLRLSCAASGFNVSSHYMSWVRQAPGKGREWVSIIDSAGSTYYADSVKGRFTISRDNSKNRLYLQMNSLRAEDTAMYYCARATAVAEKNGYNYPFNYWGQGTLVTVSS
notes: as for B1
- EC50 [1]: 15.4 nM
- MFI Maximum [1]: 6350
- Kd [2]: 4.32 nM
- koff [2]: 0.000455 s⁻¹
- kon [2]: 105000 M⁻¹ s⁻¹
- kdis ratio [3]: 2.51

B13: PR005585 (antibody, human IgG1, V domains shown)
VH: EVQLVETGGGLIQPGGSLRLSCAASGFTVSSFYMSWVRQAPGKGREWVSIIDKAGSTYYADSVKGRFTISRDNSKNRLYLQMNSLRAEDTAMYYCARATEVREKQGYNYPFNYWGQGTLVTVSS
notes: no light chain; also called anti-PD1 PR002481Com_35 HCAb hIgG1
- EC50 [5]: 7.83 nM
- Maximum (MFI) [5]: 3.11e+06
- Kd [2]: 3.08 nM
- koff [2]: 2.22e-05 s⁻¹
- kon [2]: 13200 M⁻¹ s⁻¹

B14: PR005572 (antibody, human IgG1, V domains shown)
VH: EVQLVETGGGLIQPGGSLRLSCAASGFNVAFYYMSWVRQAPGKGREWVSIIDKGGSTYYADSVKGRFTISRDNSKNRLYLQMNSLRAEDTAMYYCARATEVREKQGYNYPFNYWGQGTLVTVSS
notes: no light chain; also called anti-PD1 PR002481Com_32 HCAb hIgG1
- EC50 [5]: 4.68 nM
- Maximum (MFI) [5]: 3.04e+06
- Kd [2]: 3.32 nM
- koff [2]: 4.28e-05 s⁻¹
- kon [2]: 12900 M⁻¹ s⁻¹

B15: PR005100 (VHH)
VHH: EVQLVETGGGLIQPGGSLRLSCAASGFNVSSHYMSWVRQAPGKGREWVSIIDRGGSKYYADSVKGRFTISRDNSKNRLYLQMNSLRAEDTAMYYCARATAVAEKNGYNYPFNYWGQGTLVTVSS
notes: as for B1
- EC50 [1]: 19 nM
- MFI Maximum [1]: 6510
- Kd [2]: 11.6 nM
- koff [2]: 0.000301 s⁻¹
- kon [2]: 26000 M⁻¹ s⁻¹
- kdis ratio [3]: 3.8

B16: PR005569 (antibody, human IgG1, V domains shown)
VH: EVQLVETGGGLIQPGGSLRLSCAASGFNVSFYYMSWVRQAPGKGREWVSIIDKSGSTYYAASVKGRFTISRDNSKNRLYLQMNSLRAEDTAMYYCARATEVREKNGYNYPFNYWGQGTLVTVSS
notes: no light chain; also called anti-PD1 PR002481R2M4_E2 HCAb hIgG1
- EC50 [5]: 3.4 nM
- Maximum (MFI) [5]: 3.14e+06
- Kd [2]: 0.482 nM
- koff [2]: 5.75e-06 s⁻¹
- kon [2]: 11900 M⁻¹ s⁻¹

Source: patent US20240034792A1 (HARBOUR BIOMED SHANGHAI, published 2024)
